Reference: paper PMC10521975, “Species-specific cleavage of cGAS by picornavirus protease 3C disrupts mitochondria DNA-mediated immune sensing”

Target: T1, pcGAS full-length (pcGASFL) (Sus scrofa (porcine), UniProt I3LM39 1-495)
T1 sequence: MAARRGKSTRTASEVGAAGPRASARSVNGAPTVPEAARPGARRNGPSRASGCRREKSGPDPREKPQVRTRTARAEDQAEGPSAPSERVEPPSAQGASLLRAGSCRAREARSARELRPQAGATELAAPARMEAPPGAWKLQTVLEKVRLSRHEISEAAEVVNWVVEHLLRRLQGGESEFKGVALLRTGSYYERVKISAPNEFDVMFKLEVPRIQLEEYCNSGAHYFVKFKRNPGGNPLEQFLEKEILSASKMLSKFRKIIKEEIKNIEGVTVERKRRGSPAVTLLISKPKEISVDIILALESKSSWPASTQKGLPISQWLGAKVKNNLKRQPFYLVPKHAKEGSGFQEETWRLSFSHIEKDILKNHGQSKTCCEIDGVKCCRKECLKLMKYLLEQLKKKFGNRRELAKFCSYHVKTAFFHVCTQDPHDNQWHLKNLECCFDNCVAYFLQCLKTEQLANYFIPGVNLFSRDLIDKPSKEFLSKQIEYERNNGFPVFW
Assay: EMSA; pcGAS dose series; EMSA: 50 uM ISD45, pcGAS at DNA:protein 1:1 to 1:32, RT 1 h, 1% agarose in 40 mM Tris-HCl pH 9.2; pull-down: pcGAS + 3C in 50 mM HEPES pH 7.5, 3 mM EDTA, 150 mM NaCl, 0.005% Tween-20, 10 mM DTT at 37 C 2 h, then 4 h with HSV60 streptavidin beads
Conditions: protein: recombinant; tags: N-term His6-SUMO-FLAG, C-term HA (SUMO kept on full-length protein); blunt

B1: ISD45 (dsDNA)
DNA 1: TACAGATCTACTAGTGATCTATGACTGATCTGTACATGATCTACA
DNA 2: TGTAGATCATGTACAGATCAGTCATAGATCACTAGTAGATCTGTA
binding result: binds
